B1: PHF12 (full-length) (natural protein, human, UniProt Q96QT6 1-1004, looked up)
chain: MWEKMETKTIVYDLDTSGGLMEQIQALLAPPKTDEAEKRSRKPEKEPRRSGRATNHDSCDSCKEGGDLLCCDHCPAAFHLQCCNPPLSEEMLPPGEWMCHRCTVRRKKREQKKELGHVNGLVDKSGKRTTSPSSDTDLLDRSASKTELKAIAHARILERRASRPGTPTSSASTETPTSEQNDVDEDIIDVDEEPVAAEPDYVQPQLRRPFELLIAAAMERNPTQFQLPNELTCTTALPGSSKRRRKEETTGKNVKKTQHELDHNGLVPLPVKVCFTCNRSCRVAPLIQCDYCPLLFHMDCLEPPLTAMPLGRWMCPNHIEHVVLNQKNMTLSNRCQVFDRFQDTVSQHVVKVDFLNRIHKKHPPNRRVLQSVKRRSLKVPDAIKSQYQFPPPLIAPAAIRDGELICNGIPEESQMHLLNSEHLATQAEQQEWLCSVVALQCSILKHLSAKQMPSHWDSEQTEKADIKPVIVTDSSVTTSLQTADKTPTPSHYPLSCPSGISTQNSLSCSPPHQSPALEDIGCSSCAEKSKKTPCGTANGPVNTEVKANGPHLYSSPTDSTDPRRLPGANTPLPGLSHRQGWPRPLTPPAAGGLQNHTVGIIVKTENATGPSSCPQRSLVPVPSLPPSIPSSCASIENTSTLQRKTVQSQIGPPLTDSRPLGSPPNATRVLTPPQAAGDGILATTANQRFSSPAPSSDGKVSPGTLSIGSALTVPSFPANSTAMVDLTNSLRAFMDVNGEIEINMLDEKLIKFLALQRIHQLFPSRVQPSPGSVGTHQLASGGHHIEVQRKEVQARAVFYPLLGLGGAVNMCYRTLYIGTGADMDVCLTNYGHCNYVSGKHACIFYDENTKHYELLNYSEHGTTVDNVLYSCDFSEKTPPTPPSSIVAKVQSVIRRRRHQKQDEEPSEEAAMMSSQAQGPQRRPCNCKASSSSLIGGSGAGWEGTALLHHGSYIKLGCLQFVFSITEFATKQPKGDASLLQDGVLAEKLSLKPHQGPVLRSNSVP
notes: PHF12, human, full-length; subunit of the SIN3B^FL sample; also called plant homeodomain (PHD) containing protein PHF12; source: High Five insect cells, co-infected with baculoviruses of each subunit; co-purified (Strep-Tactin, GSTrap, Superose 6 SEC)
B2: PHF12^ΔC-terminus (residues 1-502) (domain or fragment, human, UniProt Q96QT6 1-502, looked up)
chain: MWEKMETKTIVYDLDTSGGLMEQIQALLAPPKTDEAEKRSRKPEKEPRRSGRATNHDSCDSCKEGGDLLCCDHCPAAFHLQCCNPPLSEEMLPPGEWMCHRCTVRRKKREQKKELGHVNGLVDKSGKRTTSPSSDTDLLDRSASKTELKAIAHARILERRASRPGTPTSSASTETPTSEQNDVDEDIIDVDEEPVAAEPDYVQPQLRRPFELLIAAAMERNPTQFQLPNELTCTTALPGSSKRRRKEETTGKNVKKTQHELDHNGLVPLPVKVCFTCNRSCRVAPLIQCDYCPLLFHMDCLEPPLTAMPLGRWMCPNHIEHVVLNQKNMTLSNRCQVFDRFQDTVSQHVVKVDFLNRIHKKHPPNRRVLQSVKRRSLKVPDAIKSQYQFPPPLIAPAAIRDGELICNGIPEESQMHLLNSEHLATQAEQQEWLCSVVALQCSILKHLSAKQMPSHWDSEQTEKADIKPVIVTDSSVTTSLQTADKTPTPSHYPLSCPSGIST
notes: PHF12, human, residues 1-502; lacks the poorly conserved and unstructured C-terminus; subunit of the SIN3B complex sample; also called PHF12^∆C-terminus; PHF12 residues 1-502; source: High Five insect cells, co-infected with baculoviruses of each subunit; co-purified (Strep-Tactin, GSTrap, Superose 6 SEC)
B3: SIN3B isoform 2 (natural protein, human, UniProt O75182-2 1-1130, looked up)
chain: MAHAGGGSGGSGAGGPAGRGLSGARWGRSGSAGHEKLPVHVEDALTYLDQVKIRFGSDPATYNGFLEIMKEFKSQSIDTPGVIRRVSQLFHEHPDLIVGFNAFLPLGYRIDIPKNGKLNIQSPLTSQENSHNHGDGAEDFKQQVPYKEDKPQVPLESDSVEFNNAISYVNKIKTRFLDHPEIYRSFLEILHTYQKEQLNTRGRPFRGMSEEEVFTEVANLFRGQEDLLSEFGQFLPEAKRSLFTGNGPCEMHSVQKNEHDKTPEHSRKRSRPSLLRPVSAPAKKKMKLRGTKDLSIAAVGKYGTLQEFSFFDKVRRVLKSQEVYENFLRCIALFNQELVSGSELLQLVSPFLGKFPELFAQFKSFLGVKELSFAPPMSDRSGDGISREIDYASCKRIGSSYRALPKTYQQPKCSGRTAICKEVLNDTWVSFPSWSEDSTFVSSKKTPYEEQLHRCEDERFELDVVLETNLATIRVLESVQKKLSRMAPEDQEKFRLDDSLGGTSEVIQRRAIYRIYGDKAPEIIESLKKNPVTAVPVVLKRLKAKEEEWREAQQGFNKIWREQYEKAYLKSLDHQAVNFKQNDTKALRSKSLLNEIESVYDEHQEQHSEGRSAPSSEPHLIFVYEDRQILEDAAALISYYVKRQPAIQKEDQGTIHQLLHQFVPSLFFSQQLDLGASEESADEDRDSPQGQTTDPSERKKPAPGPHSSPPEEKGAFGDAPATEQPPLPPPAPHKPLDDVYSLFFANNNWYFFLRLHQTLCSRLLKIYRQAQKQLLEYRTEKEREKLLCEGRREKGSDPAMELRLKQPSEVELEEYYPAFLDMVRSLLEGSIDPTQYEDTLREMFTIHAYVGFTMDKLVQNIARQLHHLVSDDVCLKVVELYLNEKKRGAAGGNLSSRCVRAARETSYQWKAERCMADENCFKVMFLQRKGQVIMTIELLDTEEAQTEDPVEVQHLARYVEQYVGTEGASSSPTEGFLLKPVFLQRNLKKFRRRWQSEQARALRGEARSSWKRLVGVESACDVDCRFKLSTHKMVFIVNSEDYMYRRGTLCRAKQVQPLVLLRHHQHFEEWHSRWLEDNVTVEAASLVQDWLMGEEDEDMVPCKTLCETVHVHGLPVTRYRVQYSRRPASP
notes: SIN3B isoform 2, human, UniProt O75182-2; codon-optimised cDNA; numbers count on: isoform 2 (O75182-2); Tag removed with 3C protease; RbBP7 was co-expressed to keep SIN3B soluble; also called SIN3 scaffold subunit; corepressor SIN3B; source: High Five insect cells, co-infected with baculoviruses of each subunit; co-purified (Strep-Tactin, GSTrap, Superose 6 SEC); not shown: StrepII, C-terminal, …

Tests used:
Conditions in all cases: both partners purified
[1] = biological target: B3; assay: cryo-EM structure; apo SIN3B complex; SIN3B^FL sample (full-length PHF12, 3.4 Å), SIN3B complex sample (PHF12 1-502, 3.7 Å) and SIN3B^core map (2.8 Å); subunits co-expressed with RbBP7 and co-purified, GraFix (glutaraldehyde) treated
[2] = biological target: T1, HDAC2 (human, UniProt Q92769 1-488); assay: as above
T1 construct: HDAC2, human; codon-optimised cDNA; No tag is named for HDAC2; also called histone deacetylase 2; catalytic HDAC module; source: High Five insect cells, co-infected with baculoviruses of each subunit; co-purified (Strep-Tactin, GSTrap, Superose 6 SEC)

[3] = biological target: T2, MORF4L1 (mortality factor 4-like 1) (human, UniProt Q9UBU8 1-362); assay: as above
T2 construct: MORF4L1, human; codon-optimised cDNA; Tag removed with 3C protease; also called MRG and chromo domain-containing protein; source: High Five insect cells, co-infected with baculoviruses of each subunit; co-purified (Strep-Tactin, GSTrap, Superose 6 SEC); not shown: GST, N-terminal, cleaved

[4] = biological target: B3; assay: cross-linking; XL-MS: freshly purified SIN3B complex at 1.7 μM with DSSO, on ice for 10 min, quenched with Tris pH 8, trypsin digest, LC-MS

T1 sequence (Q92769 whole entry): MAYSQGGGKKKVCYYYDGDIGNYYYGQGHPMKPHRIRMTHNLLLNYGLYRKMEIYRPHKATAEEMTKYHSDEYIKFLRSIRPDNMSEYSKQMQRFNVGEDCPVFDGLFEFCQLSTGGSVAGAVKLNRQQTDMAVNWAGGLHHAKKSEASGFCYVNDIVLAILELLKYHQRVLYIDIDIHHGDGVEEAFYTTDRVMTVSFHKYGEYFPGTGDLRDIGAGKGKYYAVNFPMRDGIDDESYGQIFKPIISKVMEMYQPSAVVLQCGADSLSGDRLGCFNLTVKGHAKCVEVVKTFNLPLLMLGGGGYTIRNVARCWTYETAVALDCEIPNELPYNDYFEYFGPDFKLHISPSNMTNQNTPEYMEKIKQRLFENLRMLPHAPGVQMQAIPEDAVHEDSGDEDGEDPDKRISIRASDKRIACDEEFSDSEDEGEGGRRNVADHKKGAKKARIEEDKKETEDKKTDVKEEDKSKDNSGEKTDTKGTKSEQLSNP
T2 sequence (Q9UBU8 whole entry, the tested form may be a part): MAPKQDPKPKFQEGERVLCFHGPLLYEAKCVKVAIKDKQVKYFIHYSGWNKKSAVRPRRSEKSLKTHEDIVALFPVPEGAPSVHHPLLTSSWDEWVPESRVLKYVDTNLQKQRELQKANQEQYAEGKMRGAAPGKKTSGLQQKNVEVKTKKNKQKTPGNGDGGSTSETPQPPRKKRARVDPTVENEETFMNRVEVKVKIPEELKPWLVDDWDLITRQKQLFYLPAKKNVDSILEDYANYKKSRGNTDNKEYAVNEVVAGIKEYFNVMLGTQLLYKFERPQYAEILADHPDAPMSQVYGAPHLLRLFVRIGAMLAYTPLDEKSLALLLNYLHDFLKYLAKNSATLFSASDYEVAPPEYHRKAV

Binder | stoichiometry N [1] | stoichiometry N [2] | stoichiometry N [3] | binding result [4]
B1 | 1 | 1 | 1 | –
B2 | – | – | – | binds
B3 | – | 1 | – | –

Reference: article PMC10156912, “Mechanism of assembly, activation and lysine selection by the SIN3B histone deacetylase complex” (Nature Communications, 2023)
